In PMC6147952, “Acylated-acyl carrier protein stabilizes the Pseudomonas aeruginosa WaaP lipopolysaccharide heptose kinase” (Scientific Reports, 2018):

Biological target: T1, C-terminal hexa-histidine tagged P. aeruginosa WaaP (1–264) (P. aeruginosa, UniProt Q9HUF7 1-264, selenomethionine substituted)
T1 construct: WaaP, lipopolysaccharide core heptose kinase of Pseudomonas aeruginosa (strains derived from PAO1), residues 1-264; A loop (54-72) is disordered in the crystal; also called WaaP-His; LPS heptose kinase WaaP; source: E. coli BL21(DE3)/pLysS, pET21b-waaP, purified (IMAC, Mono-Q, CM-sepharose, Superdex75); not shown: His6, C-terminal, kept
T1 sequence (looked up): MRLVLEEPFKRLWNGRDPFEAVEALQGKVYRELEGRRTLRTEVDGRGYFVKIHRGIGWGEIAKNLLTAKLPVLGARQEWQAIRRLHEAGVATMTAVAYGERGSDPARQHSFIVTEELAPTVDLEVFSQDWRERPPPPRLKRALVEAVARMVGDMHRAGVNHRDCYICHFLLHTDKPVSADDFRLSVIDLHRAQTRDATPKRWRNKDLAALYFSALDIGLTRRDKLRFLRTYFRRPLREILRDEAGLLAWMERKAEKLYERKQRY
Experiment: crystal structure; selenomethionine WaaP-His co-purified with E. coli acyl-ACP; hanging drops at 4 °C, 100 mM HEPES-NaOH pH 7.4, 5% Jeffamine M-600; 2.5 Å
Details: both partners purified

B1: E. coli acylated acyl-carrier protein (acyl-ACP) (natural protein, UniProt P0A6A8 1-78, looked up)
chain: MSTIEERVKKIIGEQLGVKQEEVTNNASFVEDLGADSLDTVELVMALEEEFDTEIPDEEAEKITTVQAAIDYINGHQA
modifications: phosphopantetheine on S36 carrying a C16:0 (palmitoyl) or C18:1 acyl chain (palmitoyl modelled in the crystal); selenomethionine
notes: acyl carrier protein of E. coli, 77 amino acids as printed; In the in vitro synthesis experiment (functional row) the ACP was purified E. coli holo-ACP palmitoylated by V. harveyi AasS; Its construct is described only in the Supplementary Information; also called palmitoyl-ACP; source: endogenous, E. coli BL21(DE3)/pLysS, co-purified with WaaP-His
stoichiometry N: 1
